# According to patent US20180072811A1 (GENERAL HOSPITAL, published 2018):
# B1: scFv SK5 (scFv)
# scFv: MAEVQLVESGGGVVRPGGSLRLSCAASGFTFDDYGMSWVRQAPGKGLEWVSGINWNGGSTGYADSVKGRFTISRDNAKNSLYLQMNSLRAEDTAVYYCARGVLSRYFDYWGQGTLVTVSSGGGGSGGGGSGGGGSEIELTQSPATLSLSPGERATLSCRASQSVSSYLAWYQQKPGQAPRLLIYDASNRATGIPARFSGSGSGTDFTLTISSLEPEDFAVYYCQQRSNWPPAFGGGTKVEIKRAA
# notes: Fully human scFv from a semi-synthetic phage display library; Tested as soluble scFv in supernatant with a c-Myc tag, detected through mAb 9E10; also called CSPG4-specific human scFv SK5
# Biological target: T1, chondroitin sulfate proteoglycan 4 (CSPG4), human (human, UniProt Q6UVK1 30-2322)
# T1 construct: whole, on cells; Cell surface proteoglycan; also called MCSP; NG2
# T1 sequence (Q6UVK1 30-2322): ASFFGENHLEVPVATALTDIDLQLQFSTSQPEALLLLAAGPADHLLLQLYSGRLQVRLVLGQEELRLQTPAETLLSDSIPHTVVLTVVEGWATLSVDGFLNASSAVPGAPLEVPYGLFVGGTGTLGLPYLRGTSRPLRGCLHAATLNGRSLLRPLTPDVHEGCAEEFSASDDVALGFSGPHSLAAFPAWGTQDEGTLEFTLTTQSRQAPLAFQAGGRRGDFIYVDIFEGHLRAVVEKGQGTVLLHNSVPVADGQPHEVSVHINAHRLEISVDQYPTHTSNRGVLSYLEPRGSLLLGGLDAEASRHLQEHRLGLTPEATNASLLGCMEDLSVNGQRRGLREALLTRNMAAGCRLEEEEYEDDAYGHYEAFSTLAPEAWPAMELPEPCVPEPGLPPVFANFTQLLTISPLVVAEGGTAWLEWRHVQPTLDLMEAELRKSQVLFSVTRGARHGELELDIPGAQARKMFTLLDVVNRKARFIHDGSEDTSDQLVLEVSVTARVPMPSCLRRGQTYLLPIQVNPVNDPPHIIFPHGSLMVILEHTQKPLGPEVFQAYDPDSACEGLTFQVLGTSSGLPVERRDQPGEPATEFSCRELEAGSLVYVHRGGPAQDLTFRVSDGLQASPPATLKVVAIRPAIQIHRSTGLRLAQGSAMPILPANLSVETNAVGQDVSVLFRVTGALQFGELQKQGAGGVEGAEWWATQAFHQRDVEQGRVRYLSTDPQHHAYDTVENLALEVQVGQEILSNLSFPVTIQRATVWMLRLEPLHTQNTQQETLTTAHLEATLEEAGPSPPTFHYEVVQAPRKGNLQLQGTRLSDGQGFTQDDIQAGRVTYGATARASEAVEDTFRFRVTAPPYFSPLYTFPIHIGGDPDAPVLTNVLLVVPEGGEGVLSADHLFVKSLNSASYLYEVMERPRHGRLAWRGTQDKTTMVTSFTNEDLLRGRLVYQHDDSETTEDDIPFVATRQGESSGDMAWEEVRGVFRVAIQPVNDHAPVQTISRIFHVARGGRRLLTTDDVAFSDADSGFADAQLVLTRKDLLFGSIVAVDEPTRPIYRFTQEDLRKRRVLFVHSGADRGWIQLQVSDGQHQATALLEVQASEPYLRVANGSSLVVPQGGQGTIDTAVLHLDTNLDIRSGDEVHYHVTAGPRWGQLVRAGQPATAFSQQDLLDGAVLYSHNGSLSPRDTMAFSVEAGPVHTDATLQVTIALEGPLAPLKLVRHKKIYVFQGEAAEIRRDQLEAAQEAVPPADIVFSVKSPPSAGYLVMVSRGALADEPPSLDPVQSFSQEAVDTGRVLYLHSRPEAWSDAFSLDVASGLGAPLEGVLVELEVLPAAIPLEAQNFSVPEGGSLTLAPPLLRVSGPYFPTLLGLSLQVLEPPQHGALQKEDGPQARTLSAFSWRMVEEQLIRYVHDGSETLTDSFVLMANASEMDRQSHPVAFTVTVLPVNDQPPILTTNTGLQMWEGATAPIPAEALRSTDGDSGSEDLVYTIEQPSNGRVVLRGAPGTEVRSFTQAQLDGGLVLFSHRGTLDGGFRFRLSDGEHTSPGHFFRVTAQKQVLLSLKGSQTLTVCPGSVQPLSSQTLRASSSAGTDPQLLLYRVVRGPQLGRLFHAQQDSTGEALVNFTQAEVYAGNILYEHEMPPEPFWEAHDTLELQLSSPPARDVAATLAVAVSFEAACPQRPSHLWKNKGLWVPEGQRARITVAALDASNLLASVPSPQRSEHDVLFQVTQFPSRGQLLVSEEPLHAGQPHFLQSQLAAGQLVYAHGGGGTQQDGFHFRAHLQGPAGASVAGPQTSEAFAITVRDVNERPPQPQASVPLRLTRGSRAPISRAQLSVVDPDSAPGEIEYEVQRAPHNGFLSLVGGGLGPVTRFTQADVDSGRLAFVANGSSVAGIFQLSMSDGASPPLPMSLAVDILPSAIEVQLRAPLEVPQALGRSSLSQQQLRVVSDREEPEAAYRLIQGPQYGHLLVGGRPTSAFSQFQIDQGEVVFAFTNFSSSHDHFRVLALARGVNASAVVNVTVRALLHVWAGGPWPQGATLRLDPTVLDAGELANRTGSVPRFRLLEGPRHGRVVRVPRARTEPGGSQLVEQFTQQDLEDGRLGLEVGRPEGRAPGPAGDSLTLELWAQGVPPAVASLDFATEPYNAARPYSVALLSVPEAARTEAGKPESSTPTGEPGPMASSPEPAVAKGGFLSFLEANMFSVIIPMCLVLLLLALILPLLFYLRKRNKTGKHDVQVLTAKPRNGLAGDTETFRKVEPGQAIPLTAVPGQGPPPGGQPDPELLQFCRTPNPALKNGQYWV
# Experiment: reactivity of single scFv clones with CSPG4+ SK-MEL-28 melanoma cells and CSPG4- LG2 B lymphoid cells
binder,measurement,value
B1,binding result,binds
